Data from the supplement of paper PMC6755084.

B1: F1*; the commonest letter at each place (parent)
chain: GAGACCGCAACTGAAAAGTTGTTATCACTTGTCGTAAGACACTTTGGATGGGTTGAAGTTCTGCACGTAGAAGCAAAAGGC

Variants of: B1
Experiment: fraction ligated after 30 min (ligated reads / total reads); higher = more ligase activity
Conditions: with F1*sub RNA substrate (template-directed ligation), 42 °C
Experimental: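 Chip-synthesised pool of F1* ligase ribozyme variants (all single and double substitutions, single, double and triple deletions in the catalytic core and GAA bulge, plus designed variants) was transcribed with T7 and reacted as a pool with excess substrate F1*sub for 30 min at 42 C in 50 mM EPPS pH 8.5, 25 mM MgCl2. Ligated and unligated bands were separated by PAGE, barcoded by RT and deep sequenced; fraction ligated = ligated reads / total reads per variant, relative activity = FL / FL of wild type (0.826). Sequences are the DNA template of the ribozyme.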

Variant	fraction ligated
GAGACCGCAACTGAAAAGTTGTTACCACTTATCGTAAGACACTTTGGATGGGTTGAAGTTCTGCACGTAGAAGCAAAAGGC [T25C G31A]	0.742
GAGACCGCAACTGAAAAGTTGTTACCACCTGTCGTAAGACACTTTGGATGGGTTGAAGTTCTGCACGTAGAAGCAAAAGGC [T25C T29C]	0.781
GAGACCGCAACTGAAAAGTTGTTACCACGTGTCGTAAGACACTTTGGATGGGTTGAAGTTCTGCACGTAGAAGCAAAAGGC [T25C T29G]	0.783
GAGACCGCAACTGAAAAGTTGTTACCACATGTCGTAAGACACTTTGGATGGGTTGAAGTTCTGCACGTAGAAGCAAAAGGC [T25C T29A]	0.753
GAGACCGCAACTGAAAAGTTGTTACCACTTGTCGTAAGACACTTTGGATGGGTTCAAGTTCTGCACGTAGAAGCAAAAGGC [T25C G55C]	0.424
GAGACCGCAACTGAAAAGTTGTTACCACTTGTCGTAAGACACTTTGGATGGGTTTAAGTTCTGCACGTAGAAGCAAAAGGC [T25C G55T]	0.174
GAGACCGCAACTGAAAAGTTGTTACCACTTGTCGTAAGACACTTTGGATGGGTTAAAGTTCTGCACGTAGAAGCAAAAGGC [T25C G55A]	0.784
GAGACCGCAACTGAAAAGTTGTTACCACTTGTCGTAAGACACCTTGGATGGGTTGAAGTTCTGCACGTAGAAGCAAAAGGC [T25C T43C]	0.731
GAGACCGCAACTGAAAAGTTGTTACCACTTGTCGTAAGACACATTGGATGGGTTGAAGTTCTGCACGTAGAAGCAAAAGGC [T25C T43A]	0.655
GAGACCGCAACTGAAAAGTTGTTACCACTTGTCGTAAGACACGTTGGATGGGTTGAAGTTCTGCACGTAGAAGCAAAAGGC [T25C T43G]	0.8
GAGACCGCAACTGAAAAGTTGTTACCACTTGGCGTAAGACACTTTGGATGGGTTGAAGTTCTGCACGTAGAAGCAAAAGGC [T25C T32G]	0.707
GAGACCGCAACTGAAAAGTTGTTACCACTTGACGTAAGACACTTTGGATGGGTTGAAGTTCTGCACGTAGAAGCAAAAGGC [T25C T32A]	0.745
GAGACCGCAACTGAAAAGTTGTTACCACTTGCCGTAAGACACTTTGGATGGGTTGAAGTTCTGCACGTAGAAGCAAAAGGC [T25C T32C]	0.762
GAGACCGCAACTGAAAAGTTGTTACCACTTGTCGTAAAACACTTTGGATGGGTTGAAGTTCTGCACGTAGAAGCAAAAGGC [T25C G38A]	0.803
GAGACCGCAACTGAAAAGTTGTTACCACTTGTCGTAATACACTTTGGATGGGTTGAAGTTCTGCACGTAGAAGCAAAAGGC [T25C G38T]	0.747
GAGACCGCAACTGAAAAGTTGTTACCACTTGTCGTAACACACTTTGGATGGGTTGAAGTTCTGCACGTAGAAGCAAAAGGC [T25C G38C]	0.0674
GAGACCGCAACTGAAAAGTTGTTACCACTTGTCGTAAGACACTTTGCATGGGTTGAAGTTCTGCACGTAGAAGCAAAAGGC [T25C G47C]	0.0468

Variant	fraction ligated
GAGACCGCAACTGAAAAGTTGTTACCACTTGTCGTAAGACACTTTGTATGGGTTGAAGTTCTGCACGTAGAAGCAAAAGGC [T25C G47T]	0.208
GAGACCGCAACTGAAAAGTTGTTACCACTTGTCGTAAGACACTTTGAATGGGTTGAAGTTCTGCACGTAGAAGCAAAAGGC [T25C G47A]	0.734
GAGACCGCAACTGAAAAGTTGTTACCACTTGTCGTAAGACACTTTGGCTGGGTTGAAGTTCTGCACGTAGAAGCAAAAGGC [T25C A48C]	0.686
GAGACCGCAACTGAAAAGTTGTTACCACTTGTCGTAAGACACTTTGGGTGGGTTGAAGTTCTGCACGTAGAAGCAAAAGGC [T25C A48G]	0.794
GAGACCGCAACTGAAAAGTTGTTACCACTTGTCGTAAGACACTTTGGTTGGGTTGAAGTTCTGCACGTAGAAGCAAAAGGC [T25C A48T]	0.815
GAGACCGCAACTGAAAAGTTGTTACCACTGGTCGTAAGACACTTTGGATGGGTTGAAGTTCTGCACGTAGAAGCAAAAGGC [T25C T30G]	0.162
GAGACCGCAACTGAAAAGTTGTTACCACTCGTCGTAAGACACTTTGGATGGGTTGAAGTTCTGCACGTAGAAGCAAAAGGC [T25C T30C]	0.751
GAGACCGCAACTGAAAAGTTGTTACCACTAGTCGTAAGACACTTTGGATGGGTTGAAGTTCTGCACGTAGAAGCAAAAGGC [T25C T30A]	0.75
GAGACCGCAACTGAAAAGTTGTTACCACTTGTCGTAAGACACTTTAGATGGGTTGAAGTTCTGCACGTAGAAGCAAAAGGC [T25C G46A]	0.71
GAGACCGCAACTGAAAAGTTGTTACCACTTGTCGTAAGACACTTTCGATGGGTTGAAGTTCTGCACGTAGAAGCAAAAGGC [T25C G46C]	0.474
GAGACCGCAACTGAAAAGTTGTTACCACTTGTCGTAAGACACTTTTGATGGGTTGAAGTTCTGCACGTAGAAGCAAAAGGC [T25C G46T]	0.396
GAGACCGCAACTGAAAAGTTGTTACCACTTGTCGTAAGACTCTTTGGATGGGTTGAAGTTCTGCACGTAGAAGCAAAAGGC [T25C A41T]	0.82
GAGACCGCAACTGAAAAGTTGTTACCACTTGTCGTAAGACGCTTTGGATGGGTTGAAGTTCTGCACGTAGAAGCAAAAGGC [T25C A41G]	0.757
GAGACCGCAACTGAAAAGTTGTTACCACTTGTCGTAAGACCCTTTGGATGGGTTGAAGTTCTGCACGTAGAAGCAAAAGGC [T25C A41C]	0.517
GAGACCGCAACTGAAAAGTTGTTACCACTTGTCGGAAGACACTTTGGATGGGTTGAAGTTCTGCACGTAGAAGCAAAAGGC [T25C T35G]	0.801
GAGACCGCAACTGAAAAGTTGTTACCACTTGTCGCAAGACACTTTGGATGGGTTGAAGTTCTGCACGTAGAAGCAAAAGGC [T25C T35C]	0.771
GAGACCGCAACTGAAAAGTTGTTACCACTTGTCGAAAGACACTTTGGATGGGTTGAAGTTCTGCACGTAGAAGCAAAAGGC [T25C T35A]	0.781
